Target: T1, GI.1 norovirus (Norwalk virus) virus-like particles (Norwalk virus (norovirus GI.1), UniProt Q83884 1-530)
T1 construct: major capsid protein VP1 (ORF2) of Norwalk virus, genotype GI.1, assembled into virus-like particles; also called GI.1 VLPs; GI.1 VLP; copies: 180
T1 sequence: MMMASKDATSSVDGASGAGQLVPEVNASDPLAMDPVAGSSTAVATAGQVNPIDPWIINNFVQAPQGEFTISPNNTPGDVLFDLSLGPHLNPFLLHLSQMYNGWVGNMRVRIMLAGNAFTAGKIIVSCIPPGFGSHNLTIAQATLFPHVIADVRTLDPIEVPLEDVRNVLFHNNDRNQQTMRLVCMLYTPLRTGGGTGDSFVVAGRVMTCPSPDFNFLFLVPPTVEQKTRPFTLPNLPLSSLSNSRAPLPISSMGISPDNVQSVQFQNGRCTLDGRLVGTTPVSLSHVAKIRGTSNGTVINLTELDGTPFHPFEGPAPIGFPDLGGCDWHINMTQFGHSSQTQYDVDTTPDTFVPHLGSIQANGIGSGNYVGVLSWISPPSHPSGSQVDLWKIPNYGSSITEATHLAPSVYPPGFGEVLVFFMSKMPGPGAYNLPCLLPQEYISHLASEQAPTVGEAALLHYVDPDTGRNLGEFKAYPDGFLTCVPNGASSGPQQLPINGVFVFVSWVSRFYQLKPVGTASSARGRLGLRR
Test: ELISA; phage ELISA: VLPs, P-domain, S-domain (CT303) or BSA coated directly on the plate (VLPs 5 ug/mL in PBS); 5 × 10^10 cfu phage per well in 1% MPBS, 2 h RT; detected with anti-M13 HRP; signal as ratio to M13KE phage
Conditions: both partners purified

B1: NV-N-R5-1 phage-displayed 12-mer peptide (peptide)
peptide: LPSWYLAYQKII
notes: source: first reported by Rogers et al [18]
**Q.** Does B1 bind?
**A.** Result: binds
